From the RNAGym collection of RNA variant scans (doi:10.7554/elife.80360)

B1: CPEB3 Ribozyme (parent)
chain: GGGGGCCACAGCAGAAGCGUUCACGUCGCGGCCCCUGUCAGAUUCUGGUGAAUCUGCGAAUUCUGCUGU

Variants of: B1
Test: self-cleavage, relative activity (ratio to wild type); higher = more cleavage; co-transcriptional

Going from U21G A60C to U21G C24G, the self-cleavage falls from 0.235 to 0.0852.

Compared with U21G C27A, U21G C27U is lower in self-cleavage: 0.196 for the first, 0.112 for the second.

Compared with U21G C29A, U21G C34G is lower in self-cleavage: 0.242 for the first, 0.193 for the second.

Compared with U21G C34U, U21G C35G is lower in self-cleavage: 0.53 for the first, 0.225 for the second.

Going from U21G C35U to U21G C39A, the self-cleavage rises from 0.361 to 0.396.

Going from U21G C39U to U21G C45A, the self-cleavage rises from 0.61 to 0.643.

Compared with U21G C45G, U21G C45U is higher in self-cleavage: 0.567 for the first, 0.593 for the second.

Compared with U21G C54A, U21G C57G is lower in self-cleavage: 0.341 for the first, 0.235 for the second.

First: U21G C63G
Second: U21G C63U
The self-cleavage of the first is lower: 0.158 for the first, 0.434 for the second.

Compared with U21G G25A, U21G G28A is lower in self-cleavage: 0.284 for the first, 0.245 for the second.

First: U21G G28C
Second: U21G G30A
The self-cleavage of the first is lower: 0.162 for the first, 0.221 for the second.

First: U21G G30C
Second: U21G G30U
The self-cleavage of the first is higher: 0.232 for the first, 0.214 for the second.

First: U21G G31C
Second: U21G G47A
The self-cleavage of the first is lower: 0.181 for the first, 0.715 for the second.

Going from U21G G47C to U21G G47U, the self-cleavage falls from 0.818 to 0.638.

First: U21G G50A
Second: U21G G50C
The self-cleavage of the first is lower: 0.488 for the first, 0.616 for the second.

Going from U21G G56A to U21G G56C, the self-cleavage falls from 0.774 to 0.495.

Going from U21G G58A to U21G G65A, the self-cleavage falls from 0.281 to 0.255.

First: U21G G68C
Second: U21G G68U
The self-cleavage of the first is higher: 0.783 for the first, 0.701 for the second.

Compared with U21G U26C, U21G U36C is lower in self-cleavage: 0.308 for the first, 0.134 for the second.

Going from U21G U36G to U21G U38C, the self-cleavage rises from 0.232 to 0.932.

Compared with U21G U46C, U21G U49A is lower in self-cleavage: 0.635 for the first, 0.527 for the second.

Compared with U21G U49G, U21G U53A is lower in self-cleavage: 0.486 for the first, 0.473 for the second.

Going from U21G U61A to U21G U64A, the self-cleavage falls from 0.319 to 0.304.

First: U21G U64C
Second: U21G U64G
The self-cleavage of the first is lower: 0.254 for the first, 0.295 for the second.

Going from U21G U67A to U21G U67C, the self-cleavage falls from 0.549 to 0.458.

Going from C22A A23G to C22A A23U, the self-cleavage rises from 0.198 to 0.281.

First: C22A A42U
Second: C22A A51C
The self-cleavage of the first is higher: 0.181 for the first, 0.176 for the second.

Compared with C22A A52C, C22A A59C is higher in self-cleavage: 0.173 for the first, 0.192 for the second.

Compared with C22A A59G, C22A A59U is lower in self-cleavage: 0.232 for the first, 0.198 for the second.

Going from C22A A60G to C22A A60U, the self-cleavage falls from 0.279 to 0.222.

Going from C22A C24A to C22A C27A, the self-cleavage rises from 0.0966 to 0.158.

Going from C22A C27G to C22A C27U, the self-cleavage falls from 0.168 to 0.144.

Going from C22A C33G to C22A C34G, the self-cleavage rises from 0.168 to 0.175.

First: C22A C34U
Second: C22A C39A
The self-cleavage of the first is higher: 0.219 for the first, 0.161 for the second.

Compared with C22A C39G, C22A C45A is lower in self-cleavage: 0.223 for the first, 0.155 for the second.

Going from C22A C45U to C22A C54A, the self-cleavage falls from 0.158 to 0.0889.

Compared with C22A C57A, C22A C63U is higher in self-cleavage: 0.174 for the first, 0.194 for the second.

Going from C22A C66A to C22A G25C, the self-cleavage rises from 0.232 to 0.255.

First: C22A G30A
Second: C22A G37A
The self-cleavage of the first is lower: 0.167 for the first, 0.212 for the second.

Compared with C22A G47C, C22A G50A is higher in self-cleavage: 0.157 for the first, 0.24 for the second.

First: C22A G56U
Second: C22A G58C
The self-cleavage of the first is lower: 0.151 for the first, 0.184 for the second.

Compared with C22A G65C, C22A G68A is higher in self-cleavage: 0.147 for the first, 0.247 for the second.

First: C22A G68C
Second: C22A G68U
The self-cleavage of the first is higher: 0.27 for the first, 0.264 for the second.

First: C22A U26A
Second: C22A U36C
The self-cleavage of the first is lower: 0.117 for the first, 0.169 for the second.

First: C22A U38C
Second: C22A U43C
The self-cleavage of the first is lower: 0.151 for the first, 0.167 for the second.

Going from C22A U44A to C22A U44C, the self-cleavage rises from 0.184 to 0.217.

First: C22A U53C
Second: C22A U55G
The self-cleavage of the first is higher: 0.239 for the first, 0.162 for the second.

Going from C22A U62A to C22A U62C, the self-cleavage rises from 0.148 to 0.17.

Compared with C22A U67C, C22G A23C is lower in self-cleavage: 0.21 for the first, 0.179 for the second.

Compared with C22G A23U, C22G A40C is lower in self-cleavage: 0.24 for the first, 0.23 for the second.

Going from C22G A40G to C22G A40U, the self-cleavage falls from 0.204 to 0.105.

Compared with C22G A60G, C22G C24G is lower in self-cleavage: 0.265 for the first, 0.0697 for the second.

Going from C22G C24U to C22G C27G, the self-cleavage falls from 0.182 to 0.16.

Compared with C22G C29A, C22G C32U is lower in self-cleavage: 0.258 for the first, 0.182 for the second.

Compared with C22G C33G, C22G C34U is lower in self-cleavage: 0.216 for the first, 0.203 for the second.

First: C22G C45U
Second: C22G C57A
The self-cleavage of the first is lower: 0.158 for the first, 0.221 for the second.

First: C22G C57U
Second: C22G C66U
The self-cleavage of the first is lower: 0.148 for the first, 0.182 for the second.

Compared with C22G G28A, C22G G31A is lower in self-cleavage: 0.16 for the first, 0.137 for the second.

First: C22G G31C
Second: C22G G37A
The self-cleavage of the first is lower: 0.0776 for the first, 0.174 for the second.

Compared with C22G G37C, C22G G48C is lower in self-cleavage: 0.956 for the first, 0.212 for the second.

Going from C22G G50A to C22G G56A, the self-cleavage rises from 0.189 to 0.241.

First: C22G G56C
Second: C22G G58A
The self-cleavage of the first is higher: 0.158 for the first, 0.103 for the second.

Going from C22G G68A to C22G G68C, the self-cleavage falls from 0.267 to 0.156.

Going from C22G U26A to C22G U26C, the self-cleavage rises from 0.144 to 0.209.

Compared with C22G U44G, C22G U46G is higher in self-cleavage: 0.16 for the first, 0.178 for the second.

Going from C22G U49A to C22G U53A, the self-cleavage falls from 0.172 to 0.136.

Going from C22G U61A to C22G U64G, the self-cleavage falls from 0.181 to 0.157.

Compared with C22G U69A, C22G U69G is higher in self-cleavage: 0.242 for the first, 0.349 for the second.

First: C22U A23C
Second: C22U A40C
The self-cleavage of the first is higher: 0.276 for the first, 0.165 for the second.

First: C22U A40G
Second: C22U A40U
The self-cleavage of the first is higher: 0.266 for the first, 0.184 for the second.

Going from C22U A42G to C22U A51U, the self-cleavage rises from 0.204 to 0.295.

First: C22U A52U
Second: C22U A59G
The self-cleavage of the first is lower: 0.315 for the first, 0.324 for the second.

Going from C22U C24A to C22U C29A, the self-cleavage falls from 0.179 to 0.172.

Going from C22U C32G to C22U C35G, the self-cleavage rises from 0.133 to 0.165.

Going from C22U C39U to C22U C54G, the self-cleavage rises from 0.179 to 0.285.

Going from C22U C54U to C22U C57G, the self-cleavage falls from 0.349 to 0.144.

Compared with C22U C57U, C22U C66U is higher in self-cleavage: 0.192 for the first, 0.33 for the second.

Going from C22U G28C to C22U G30A, the self-cleavage rises from 0.126 to 0.164.

Going from C22U G30U to C22U G37U, the self-cleavage falls from 0.221 to 0.181.

Going from C22U G48A to C22U G68U, the self-cleavage rises from 0.379 to 0.51.

Going from C22U U26C to C22U U26G, the self-cleavage falls from 0.279 to 0.207.

First: C22U U43C
Second: C22U U46C
The self-cleavage of the first is lower: 0.295 for the first, 0.369 for the second.

First: C22U U46G
Second: C22U U49A
The self-cleavage of the first is lower: 0.274 for the first, 0.297 for the second.

For C22U U61A, the self-cleavage was 0.18.
